Source: paper PMC9352680, “A comprehensive thermodynamic model for RNA binding by the Saccharomyces cerevisiae Pumilio protein PUF4”

Biological target: T1, PUF4 RNA-binding domain (Saccharomyces cerevisiae, UniProt P25339 537-888)
T1 sequence: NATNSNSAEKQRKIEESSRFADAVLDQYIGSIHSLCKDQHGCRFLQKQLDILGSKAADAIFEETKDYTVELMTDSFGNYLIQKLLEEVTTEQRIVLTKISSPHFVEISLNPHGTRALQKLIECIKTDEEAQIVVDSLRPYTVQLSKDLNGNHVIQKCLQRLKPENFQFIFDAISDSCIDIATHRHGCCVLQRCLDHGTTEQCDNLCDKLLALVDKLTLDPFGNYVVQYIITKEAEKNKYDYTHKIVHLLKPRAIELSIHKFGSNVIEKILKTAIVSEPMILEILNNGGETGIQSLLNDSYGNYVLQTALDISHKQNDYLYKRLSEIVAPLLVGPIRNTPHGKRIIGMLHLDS
Test: Mg; RNA-MaP; 20 mM Na-HEPES pH 7.4, 30 mM KOAc, 0.75 mM MgCl2, 0.1% Tween-20, 5% glycerol, 0.1 mg/mL BSA, 2 mM DTT; 25 C; 0.0125-409.6 nM protein
Conditions: tags: N-His6-TEV cleaved; C-SNAP kept, Cy3B-labelled; label: tethered on chip by stalled RNA polymerase

B1: Id_ii_S4_P3E.3_K3.2_C3.2_[C-2A]_[T-1A]_H3.2_A3.1_F3.1_T3.2_[T9C]_[A10T] (ssRNA)
RNA: UUUGACAACUGAUCGUUCUUUCUAAUAUAUAUACUUUCUUUCUCGAUCAGUUGUCUUU
- Kd: 167 nM

B2: Id_ii_S4_P3E.4_K3.3_C3.2_[C-2G]_[T-1C]_H3.3_A3.1_F3.1_T3.2_[T9C]_[A10C] (ssRNA)
RNA: UUUGACAACUGAUCGUUCUUUCUGCACACUAUACCUUCUUUCUCGAUCAGUUGUCUUU
- Kd: 50.2 nM

B3: Id_ii_S4_P3E.3_K3.2_C3.2_H3.2_A3.1_F3.1_T3.2_[A10C] (ssRNA)
RNA: UUUGACAACUGAUCGUUCUUUCUCUUAUAUAUAUCUUCUUUCUCGAUCAGUUGUCUUU
- Kd: 104 nM

B4: Id_ii_S4_P3E.3_K3.2_C3.2_H3.2_A3.1_F3.1_T3.2_[T9A]_[A10C] (ssRNA)
RNA: UUUGACAACUGAUCGUUCUUUCUCUUAUAUAUAACUUCUUUCUCGAUCAGUUGUCUUU
- Kd: 176 nM

B5: Id_ii_S4_P3E.3_K3.2_C3.2_[T-1C]_H3.2_A3.1_F3.1_T3.2_[T9C]_[A10T] (ssRNA)
RNA: UUUGACAACUGAUCGUUCUUUCUCCUAUAUAUACUUUCUUUCUCGAUCAGUUGUCUUU
- Kd: 92.9 nM

B6: Id_ii_S4_P3E.4_K3.3_C3.2_[C-2T]_[T-1C]_H3.3_A3.1_F3.1_T3.2_[A10T] (ssRNA)
RNA: UUUGACAACUGAUCGUUCUUUCUUCACACUAUAUUUUCUUUCUCGAUCAGUUGUCUUU
- Kd: 1430 nM

B7: Id_ii_S4_P3E.3_K3.2_C3.2_[T-1A]_H3.2_A3.1_F3.1_T3.2_[T9A] (ssRNA)
RNA: UUUGACAACUGAUCGUUCUUUCUCAUAUAUAUAAAUUCUUUCUCGAUCAGUUGUCUUU
- Kd: 842 nM

B8: Id_ii_S4_P3E.3_K3.2_C3.2_[T-1C]_H3.2_A3.1_F3.1_T3.2_[A10T] (ssRNA)
RNA: UUUGACAACUGAUCGUUCUUUCUCCUAUAUAUAUUUUCUUUCUCGAUCAGUUGUCUUU
- Kd: 37.4 nM

B9: Id_ii_S4_P3E.3_K3.2_C3.2_[C-2A]_H3.2_A3.1_F3.1_T3.2_[A10T] (ssRNA)
RNA: UUUGACAACUGAUCGUUCUUUCUAUUAUAUAUAUUUUCUUUCUCGAUCAGUUGUCUUU
- Kd: 203 nM

B10: Id_ii_S4_P3E.3_K3.2_C3.2_[C-2A]_H3.2_A3.1_F3.1_T3.2 (ssRNA)
RNA: UUUGACAACUGAUCGUUCUUUCUAUUAUAUAUAUAUUCUUUCUCGAUCAGUUGUCUUU
- Kd: 596 nM

B11: Id_ii_S4_P3E.4_K3.3_C3.2_[C-2G]_H3.3_A3.1_F3.1_T3.2_[T9A]_[A10T] (ssRNA)
RNA: UUUGACAACUGAUCGUUCUUUCUGUACACUAUAAUUUCUUUCUCGAUCAGUUGUCUUU
- Kd: 0.68 nM

B12: Id_ii_S4_P3E.4_K3.3_C3.2_[C-2G]_[T-1C]_H3.3_A3.1_F3.1_T3.2_[T9C] (ssRNA)
RNA: UUUGACAACUGAUCGUUCUUUCUGCACACUAUACAUUCUUUCUCGAUCAGUUGUCUUU
- Kd: 115 nM

B13: Id_ii_S4_P3E.3_K3.2_C3.2_[C-2A]_[T-1A]_H3.2_A3.1_F3.1_T3.2_[T9A] (ssRNA)
RNA: UUUGACAACUGAUCGUUCUUUCUAAUAUAUAUAAAUUCUUUCUCGAUCAGUUGUCUUU
- Kd: 723 nM

B14: Id_ii_S4_P3E.3_K3.2_C3.2_H3.2_A3.1_F3.1_T3.2 (ssRNA)
RNA: UUUGACAACUGAUCGUUCUUUCUCUUAUAUAUAUAUUCUUUCUCGAUCAGUUGUCUUU
- Kd: 68.6 nM

B15: Id_ii_S4_P3E.4_K3.3_C3.2_[C-2G]_[T-1C]_H3.3_A3.1_F3.1_T3.2_[T9G]_[A10T] (ssRNA)
RNA: UUUGACAACUGAUCGUUCUUUCUGCACACUAUAGUUUCUUUCUCGAUCAGUUGUCUUU
- Kd: 593 nM

B16: Id_ii_S4_P3E.4_K3.3_C3.2_[C-2T]_[T-1A]_H3.3_A3.1_F3.1_T3.2_[T9A]_[A10T] (ssRNA)
RNA: UUUGACAACUGAUCGUUCUUUCUUAACACUAUAAUUUCUUUCUCGAUCAGUUGUCUUU
- Kd: > 2300 nM

B17: Id_ii_S4_P3E.3_K3.2_C3.2_H3.2_A3.1_F3.1_T3.2_[T9C]_[A10C] (ssRNA)
RNA: UUUGACAACUGAUCGUUCUUUCUCUUAUAUAUACCUUCUUUCUCGAUCAGUUGUCUUU
- Kd: 190 nM

B18: Id_ii_S4_P3E.3_K3.2_C3.2_[T-1G]_H3.2_A3.1_F3.1_T3.2_[T9C]_[A10C] (ssRNA)
RNA: UUUGACAACUGAUCGUUCUUUCUCGUAUAUAUACCUUCUUUCUCGAUCAGUUGUCUUU
- Kd: 978 nM

B19: Id_ii_S4_P3E.3_K3.2_C3.2_[T-1C]_H3.2_A3.1_F3.1_T3.2_[T9G]_[A10T] (ssRNA)
RNA: UUUGACAACUGAUCGUUCUUUCUCCUAUAUAUAGUUUCUUUCUCGAUCAGUUGUCUUU
- Kd: 392 nM

B20: Id_ii_S4_P3E.3_K3.2_C3.2_H3.2_A3.1_F3.1_T3.2_[T9G]_[A10C] (ssRNA)
RNA: UUUGACAACUGAUCGUUCUUUCUCUUAUAUAUAGCUUCUUUCUCGAUCAGUUGUCUUU
- Kd: 567 nM

B21: Id_ii_S4_P3E.3_K3.2_C3.2_[C-2A]_H3.2_A3.1_F3.1_T3.2_[T9C]_[A10T] (ssRNA)
RNA: UUUGACAACUGAUCGUUCUUUCUAUUAUAUAUACUUUCUUUCUCGAUCAGUUGUCUUU
- Kd: 214 nM

B22: Id_ii_S4_P3E.4_K3.3_C3.2_[C-2G]_H3.3_A3.1_F3.1_T3.2_[A10T] (ssRNA)
RNA: UUUGACAACUGAUCGUUCUUUCUGUACACUAUAUUUUCUUUCUCGAUCAGUUGUCUUU
- Kd: 0.57 nM

B23: Id_ii_S4_P3E.3_K3.2_C3.2_[T-1C]_H3.2_A3.1_F3.1_T3.2_[A10G] (ssRNA)
RNA: UUUGACAACUGAUCGUUCUUUCUCCUAUAUAUAUGUUCUUUCUCGAUCAGUUGUCUUU
- Kd: 126 nM

B24: Id_ii_S4_P3E.4_K3.3_C3.2_[C-2T]_[T-1A]_H3.3_A3.1_F3.1_T3.2_[A10C] (ssRNA)
RNA: UUUGACAACUGAUCGUUCUUUCUUAACACUAUAUCUUCUUUCUCGAUCAGUUGUCUUU
- Kd: 1540 nM
